Measurements reported in publication PMC5148066.
Where two headings read alike, the source gives them in different places.

Assays:
[1] = molecular target: Bovine papular stomatitis virus chemokine-binding protein (Bovine papular stomatitis virus); experiment: SPR; BPSV-CBP immobilised on a CM5 chip (~500 RU, amine coupling, 10 mM sodium acetate pH 4.5); serial dilutions of mouse chemokines in HBS-EP pH 7.4 flowed in triplicate, 3 min association, 10 min dissociation, 25°C, Biacore X100; global fit, 1:1 binding model
[2] = molecular target: Bovine papular stomatitis virus chemokine-binding protein (Bovine papular stomatitis virus (strain V660 named for the sequence analysis)); experiment: SEC-MALS; purified BPSV-CBP in solution, three concentrations (2, 1, 0.05 mg/ml)
[3] = molecular target: Bovine papular stomatitis virus chemokine-binding protein (Bovine papular stomatitis virus (strain V660 named for the sequence analysis)); experiment: SPR; BPSV-CBP immobilised on a CM5 chip (~500 RU) by amine coupling; serial dilutions of mouse chemokines in HBS-EP (20 mM HEPES, 150 mM NaCl, 3.4 mM EDTA, 0.005% Polysorbate 20, pH 7.4) run in triplicate, 3 min association, 10 min dissociation; 25°C, Biacore X100; global fit with a 1:1 binding model
[4] = molecular target: Bovine papular stomatitis virus chemokine-binding protein (Bovine papular stomatitis virus); experiment: SPR; BPSV-CBP immobilised on a CM5 chip (~500 RU, amine coupling, 10 mM sodium acetate pH 4.5); serial dilutions of mouse chemokines in HBS-EP pH 7.4 flowed in triplicate, 3 min association, 10 min dissociation, 25°C, Biacore X100; global fit, 1:1 binding model; remark: listed apart in the source

“mouse CCL21 (from UniProt P84444 24-133) (ligand)” showed a Kd [1] of 0.385 nM, a koff [1] of 0.00296 s⁻¹ and a kon [1] of 7.68e+06 M⁻¹ s⁻¹.

“Bovine papular stomatitis virus chemokine-binding protein (natural protein)” was tested, and the stoichiometry N [2] was 2.

Molecule “mouse CCL2 (from UniProt P10148 24-148) (ligand)” has a Kd [1] of 0.186 nM, a koff [1] of 0.00022 s⁻¹ and a kon [1] of 1.18e+06 M⁻¹ s⁻¹.

B1: mouse CXCL1 (ligand)
chain: APIANELRCQCLQTMAGIHLKNIQSLKVLPSGPHCTQTEVIATLKNGREACLDPEAPLVQKIVQKMLKGVPK
B1 showed a Kd [3] of 4.3 nM, a Kd [4] of 4.33 nM and a koff [4] of 0.00316 s⁻¹. For the same molecule, the kon [4] was 730000 M⁻¹ s⁻¹.

B2: mouse CXCL4 (ligand)
chain: VTSAGPEESDGDLSCVCVKTISSGIHLKHITSLEVIKAGRHCAVPQLIATLKNGRKICLDRQAPLYKKVIKKILES
Molecule B2 has a Kd [3] of 2.3 nM, a Kd [4] of 2.32 nM and a koff [4] of 0.00234 s⁻¹. For the same molecule, the kon [4] was 1.01e+06 M⁻¹ s⁻¹.

B3: mouse XCL1 (ligand)
chain: VGTEVLEESSCVNLQTQRLPVQKIKTYIIWEGAMRAVIFVTKRGLKICADPEAKWVKAAIKTVDGRASTRKNMAETVPTGAQRSTSTAITLTG
In the case of B3, the Kd [3] is reported as 1.4 nM, the koff [3] is reported as 0.0014 s⁻¹ and the kon [3] is reported as 1e+06 M⁻¹ s⁻¹. For the same molecule, the Kd [4] was 1.36 nM, the koff [4] was 0.00135 s⁻¹ and the kon [4] was 990000 M⁻¹ s⁻¹.

B4: mouse CXCL2 (ligand)
chain: AVVASELRCQCLKTLPRVDFKNIQSLSVTPPGPHCAQTEVIATLKGGQKVCLDPEAPLVQKIIQKILNKGKAN
Molecule B4 has a Kd [3] of 0.725 nM, a koff [3] of 0.0006 s⁻¹ and a koff [4] of 0.00056 s⁻¹. For the same molecule, the kon [4] was 770000 M⁻¹ s⁻¹.

B5: mouse CCL19 (ligand)
chain: GANDAEDCCLSVTQRPIPGNIVKAFRYLLNEDGCRVPAVVFTTLRGYQLCAPPDQPWVDRIIRRLKKSSAKNKGNSTRRSPVS
Molecule B5 has a koff [3] of 2e-05 s⁻¹, a Kd [4] of 0.00146 nM and a kon [4] of 1.37e+07 M⁻¹ s⁻¹.

B6: mouse CCL3 (ligand)
chain: APYGADTPTACCFSYSRKIPRQFIVDYFETSSLCSQPGVIFLTKRNRQICADSKETWVQEYITDLELNA
B6 showed a Kd [4] of 0.13 nM, a koff [4] of 0.00023 s⁻¹ and a kon [4] of 1.76e+06 M⁻¹ s⁻¹.
